Broadly, the EC50 is the concentration at which the effect is half-maximal. High values mean weaker potency, low ones greater potency.

EC50 data for ten molecules are collected here from US20210324051A1 (published 2021).

B1: MR208 (antibody, V domains shown)
VH: QVQLQESGPGLVKPSETLSLTCSVSGDSVSSGDYYWSWLRQPPGKGLEWIGYIYYSGATNYNPSLKSRVTISLDTSKNQFSLKLTSVTAADTAVYYCARERAGFLEWLFFEDWGQGT
VL: DIQMTQSPSSLSASVGDRVTIFCRASQSIGTYLSWYQQKPGKAPKVLIYATSNLQSGVPSRFSGSGSGTEFTLTISSLQPEDFATYYCQQSRTFGQGTKVDMK
B2: MR209 (antibody)
chain 1: QLQLQESGPGLVKPSETLSLTCTVAGGPITSNNYYWGWIRQSPGKGLEWIGSVYYSGNTYYNPSIKTRVTMSVDTSKSQFSLKLNSVTAADTAVYYCARQFRLLQFVEWLHHFDSWGPGN
chain 2: SYVLTQPPSVSVAPGQTARIPCGGNDIANKRVHWYQQKPGQAPMLVVYDDGDRPSGIPERFSGSNSGNTATLTISRVEAGDEADYYCQVWENSSDLCVVFGGGTKLTVL
B3: MR191 human monoclonal antibody (antibody, V domains shown)
VH: QLQLQESGPGLVKPSETLSLSCTVSGVSISDNSYYWGWIRQPPGKGLEWIGTISYSGNTYYNPSLKSRVSISGDTSKHQLSLKVSSVTAADTAVYYCARQRIVSGFVEWLSKFDYWGQGTLVTVSS
VL: QSVLTQPPSVSGAPGQRVTISCTGSSSNIGAGFDVHWYQQLPGTAPKLLIYDNNNRPSGVPDRFSGSKSGTSASLAITGLQAEDEADYYCQSYDTSLSGPVVFGGGTKLTVL
B4: MR111 human monoclonal antibody (antibody, V domains shown)
V domain 1: QVQLQESGPGLVKPSETLSLTCTVSGDSINNYYWSWIRQPPGKGLEWIGYIYYSNTNYNPSLKSRVTISVDTSKNQFSLRLSSVTAADTAVYYCARSPLFWFGEFFSSPDHFDFWGQGTL
V domain 2: QSALTQPASVSGSPGQSITISCTGTSSDVGSYDLVSWYQQHPGKAPKLMLYEGTKRPSGVSNRFSGSKSGNTASLTISGLQAEDEADYYCCSYAGGSTLVFGGGTQVTVL
B5: MR72 human monoclonal antibody (antibody, V domains shown)
VH: QLQLQESGPGLVKPSETLSLTCTVSGDSINNTNYYWAWIRQPPGKGLEYIGSIYYSGSTYYNPSLKSRVTMSVDASKNQFSLRLSSVTAADTAVYYCATHPTLGAFVLLWFGANFDHWGQGTLVTVSS
VL: QAVVTQPPSVSGAPGQRVTISCTGSSSNIGANYDVHWYQQLPGTAPKLLMYSNTNRPSGVPDRFSGSKSGTSASLAITGLQAEDEADYYCQSYDNSLNSWVFGGGTQLTVL
B6: MR232 (antibody, V domains shown)
VH: QLQLQESGPGLVKPSETLSLTCAVSGGSISSSGYCWGWIRQPPGKGLEWIASICSSGTTYFNSSLKSRVSISIDTSRPQFLLNLRSLTAADTAVYYCARQRMELHFLEWLFPFDSWGQGTLVTVSS
VL: DIVMTQSPATLSVSPGERATLSCRASQSVSSNLAWYQQKPGQAPRLLISGASTRATGIPARFSGSGSGTEFTLTISSLQSEDFAVYYCQQYINWPCSFGQGTKVDIK
B7: MR229 (antibody)
chain 1: EVQLVESGGGLVKPGGSLRISCVTSGFTFGDYAMSWFRQAPGKGLEWVGFIRNKGYGGTIDYAASVKGRFTISRDDSKSIAYLQMNSLKTEDTAVYYCTGVRLHYDFWSGYDDDSFHIWGQGTM
chain 2: DGVMTQSPLSLPVTPGQPASISCRSTQSLVHGDGDTYLYWFQQRPGQSPRRLIYKVSNRDSGVPDRFSGSGSGTDFTLKISRVEAEDVGVYYCMQSTHWPPTFGQ
B8: MR65 (antibody, V domains shown)
VH: EVQLLESGGGLVQPGGSLRLSCAASGFTFSSYAMSWVRQAPGQGLEWVSGISATGGNTYYPDSVKGRFTISRDNSKNTLYLQMNSLRAEDTAVYYCARPLQFLTWFDPWGQGTLVTVSS
VL: EIVLTQSPATLSLSPGERATLSCRASQSVNNFLAWYQQKPGQPPRLLIYDATNRATGIPARFSGSGSGTDFTLTISSLEPEDFAVYHCQHRSNWPSITFGQGTRLEIK
B9: MR82 (antibody, V domains shown)
VH: QVQLVQSGAEVKKPGASVKVSCKASGHTFTTYAIHWVRQAPGQGLEWMGWINPDNDNTEYSQKFQGRVTITRDTSASTAYMELSSLISEDTAVFYCASASYTFWSGYYSGLDYWGQGTLVTVSS
VL: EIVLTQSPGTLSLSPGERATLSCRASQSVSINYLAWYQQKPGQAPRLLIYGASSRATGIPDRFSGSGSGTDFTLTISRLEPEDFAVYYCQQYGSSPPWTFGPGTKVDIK
B10: MR144 (antibody, V domains shown)
V domain 1: QVQLQESGPGLVKPSETLSLTCTVSGDSISRYYWSWIRQPPGKGLEWIGYLYYSGSTDYNPSLKSRVTISVDTSKNQFSLNLTSVTAADTAVYYCARGSSRGIGVVSHWFDPWGQGT
V domain 2: SYVLTQPPSVSVAPGQTARITCGGSNMGYKSVQWYQQRPGQAPVLVVYDDTDRPSGIPERFSGSNSGATATLTISSVEAGDEADYYCQVWDSSSDHHVVFGGGTQVTVL

The first assay has as its target Angola strain MARV GP ectodomain lacking residues 257-425 of the mucin-like domain (Marburg virus, Angola strain, UniProt Q1PD50 19-648). Kind of assay: ELISA. (In general: An ELISA detects its analyte on a solid surface through an enzyme-linked reagent.)
With B1, the EC50 amounted to 7.3 µg/mL.

B2: the half-maximal effective concentration (EC50) is 5.4 µg/mL.

Turning to B3, the EC50 was found to be 5.1 µg/mL.

Consider B4, for which the midpoint of the response, the EC50, lay at 4.3 µg/mL. The EC50 values of the last two molecules are within 1.5-fold of each other.

The molecule B5 returned an EC50 of 4.7 µg/mL. This EC50 and that of the molecule before are within 1.5-fold of each other.

B6 gave a concentration for a half-maximal effect (EC50) of 1.3 µg/mL.

B7: the half-maximal effective concentration (EC50) is 2.9 µg/mL.

In turn, B8 returned an EC50 of 7.5 µg/mL.

Turning to B9, the response was half-maximal at 1.5 µg/mL (EC50).

In turn, B10 showed an EC50 of 8 µg/mL.

The next assay deals with T1, EBOV Mayinga strain cleaved GP ectodomain (Ebola virus, Mayinga strain, UniProt Q05320 33-650).
T1 chain: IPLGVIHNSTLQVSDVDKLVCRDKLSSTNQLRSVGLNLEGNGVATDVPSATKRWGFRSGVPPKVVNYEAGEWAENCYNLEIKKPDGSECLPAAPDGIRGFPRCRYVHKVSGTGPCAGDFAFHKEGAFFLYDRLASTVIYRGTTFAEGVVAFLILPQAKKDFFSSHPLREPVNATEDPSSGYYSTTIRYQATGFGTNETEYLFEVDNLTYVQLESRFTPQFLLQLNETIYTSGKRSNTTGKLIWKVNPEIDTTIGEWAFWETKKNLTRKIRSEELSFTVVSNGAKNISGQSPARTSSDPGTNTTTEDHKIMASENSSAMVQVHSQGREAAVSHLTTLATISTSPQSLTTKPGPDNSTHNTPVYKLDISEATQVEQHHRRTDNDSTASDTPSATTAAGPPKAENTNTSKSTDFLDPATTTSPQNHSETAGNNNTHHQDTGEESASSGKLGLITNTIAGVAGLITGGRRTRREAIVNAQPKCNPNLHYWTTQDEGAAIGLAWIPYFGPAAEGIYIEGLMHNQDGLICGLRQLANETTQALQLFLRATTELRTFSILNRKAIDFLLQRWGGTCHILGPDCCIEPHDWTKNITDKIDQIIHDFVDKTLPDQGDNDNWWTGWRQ
The assay can be described thus: ELISA.
Turning to B1, the EC50 is over 1000 µg/mL.

B2: the EC50 was over 1000 µg/mL.

For B3, the EC50 was under 0.1 µg/mL.

As to B4, a half-maximal effect (EC50) was put at 21.5 µg/mL.

Take B5: the EC50 is under 0.1 µg/mL.

With B6, the EC50 is over 1000 µg/mL.

B7 gave an EC50 of over 1000 µg/mL.

As for B8, the EC50 is over 1000 µg/mL.

B9: the EC50 was over 1000 µg/mL.

For B10, the EC50 is over 1000 µg/mL.

The target of a further assay is T2, EBOV Mayinga strain GP ectodomain containing the glycan cap and mucin-like domain (Ebola virus, Mayinga strain, UniProt Q05320 33-650).
T2 chain: T1 chain
The assay can be described thus: ELISA.
Molecule B1 yielded an EC50 of over 1000 µg/mL.

B2 returned an EC50 of over 1000 µg/mL.

B3 showed an EC50 of over 1000 µg/mL.

B4 gave an EC50 of over 1000 µg/mL.

Consider B5, for which it took 6.1 µg/mL to reach a half-maximal effect (EC50).

Molecule B6 yielded an EC50 of over 1000 µg/mL.

Regarding B7, the EC50 was over 1000 µg/mL.

Consider B8, for which the EC50 was over 1000 µg/mL.

As for B9, the EC50 was over 1000 µg/mL.

Consider B10, for which the EC50 was over 1000 µg/mL.

Another assay addresses T3, Angola strain MARV GP ectodomain containing the mucin-like domain (Marburg virus, Angola strain, UniProt Q1PD50 19-648).
T3 chain: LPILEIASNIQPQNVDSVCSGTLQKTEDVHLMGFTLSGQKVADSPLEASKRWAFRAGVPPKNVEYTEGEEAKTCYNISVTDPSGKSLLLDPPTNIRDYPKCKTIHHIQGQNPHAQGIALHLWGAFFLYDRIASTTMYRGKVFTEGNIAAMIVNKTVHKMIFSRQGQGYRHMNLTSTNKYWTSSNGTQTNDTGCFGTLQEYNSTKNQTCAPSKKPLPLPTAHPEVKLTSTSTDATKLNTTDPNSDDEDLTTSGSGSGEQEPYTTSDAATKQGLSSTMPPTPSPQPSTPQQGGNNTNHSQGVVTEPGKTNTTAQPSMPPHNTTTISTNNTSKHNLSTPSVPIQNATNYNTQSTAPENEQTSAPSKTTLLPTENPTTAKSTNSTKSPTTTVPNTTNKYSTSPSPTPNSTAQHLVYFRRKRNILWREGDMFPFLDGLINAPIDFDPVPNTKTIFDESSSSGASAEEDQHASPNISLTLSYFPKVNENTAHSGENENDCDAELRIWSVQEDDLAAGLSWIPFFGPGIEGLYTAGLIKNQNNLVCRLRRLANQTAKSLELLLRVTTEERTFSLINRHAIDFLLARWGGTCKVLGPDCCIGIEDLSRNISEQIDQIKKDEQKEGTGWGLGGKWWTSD
The assay can be described thus: ELISA.
B1 came in with an EC50 of 5.6 µg/mL.

Consider B2, for which it took 4 µg/mL to reach a half-maximal effect (EC50).

On to B3, for which the midpoint of the response, the EC50, lay at 2.5 µg/mL. Compared with the last molecule, the EC50 is about 1.6-fold lower.

In the case of B4, a half-maximal response (EC50) required 2.5 µg/mL.

B5 yielded an EC50 of 3 µg/mL.

With B6, it took 2 µg/mL to reach a half-maximal effect (EC50).

In turn, B7 came in with an EC50 of 1.8 µg/mL.

For the molecule B8, the EC50 was found to be 8.3 µg/mL.

With B9, a half-maximal effect (EC50) was put at 1 µg/mL.

For the molecule B10, the concentration for a half-maximal effect (EC50) was 8.1 µg/mL.

For the next assay, the target named is EBOV Mayinga strain GP ectodomain lacking residues 314-462 of the mucin-like domain (Ebola virus, Mayinga strain, UniProt Q05320 33-650). Kind of assay: ELISA.
In turn, B1 returned an EC50 of over 1000 µg/mL.

B2 displayed an EC50 of over 1000 µg/mL.

As for B3, the EC50 is over 1000 µg/mL.

In turn, B4 came in with an EC50 of over 1000 µg/mL.

For the molecule B5, the EC50 was found to be 2.1 µg/mL.

B6 came in with an EC50 of over 1000 µg/mL.

For B7, the EC50 is over 1000 µg/mL.

As for B8, the EC50 is over 1000 µg/mL.

B9: the EC50 was over 1000 µg/mL.

As to B10, the EC50 is over 1000 µg/mL.

For the next assay, the target named is T4, Ravn strain cleaved MARV GP ectodomain (Marburg virus, Ravn strain, UniProt Q1PDC7 19-648).
T4 chain: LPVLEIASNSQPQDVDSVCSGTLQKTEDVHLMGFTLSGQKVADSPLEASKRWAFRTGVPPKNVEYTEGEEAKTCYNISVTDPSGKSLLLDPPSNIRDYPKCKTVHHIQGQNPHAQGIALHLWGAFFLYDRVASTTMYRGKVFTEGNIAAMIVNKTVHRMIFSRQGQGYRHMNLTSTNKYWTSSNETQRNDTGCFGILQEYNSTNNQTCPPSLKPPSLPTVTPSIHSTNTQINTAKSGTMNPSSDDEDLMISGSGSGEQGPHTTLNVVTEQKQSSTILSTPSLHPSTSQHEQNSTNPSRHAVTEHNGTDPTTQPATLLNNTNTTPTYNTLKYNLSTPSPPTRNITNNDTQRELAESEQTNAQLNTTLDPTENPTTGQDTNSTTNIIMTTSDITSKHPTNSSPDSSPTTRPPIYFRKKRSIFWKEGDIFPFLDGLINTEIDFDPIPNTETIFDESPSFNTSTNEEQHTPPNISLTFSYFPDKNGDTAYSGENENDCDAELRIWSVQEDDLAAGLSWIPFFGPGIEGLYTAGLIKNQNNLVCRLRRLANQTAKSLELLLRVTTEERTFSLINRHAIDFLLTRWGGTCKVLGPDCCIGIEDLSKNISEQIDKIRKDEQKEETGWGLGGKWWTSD
The assay can be described thus: ELISA.
Take B1: the midpoint of the response, the EC50, lay at 2.8 µg/mL.

B2 registered a concentration for a half-maximal effect (EC50) of 2 µg/mL.

In turn, B3 registered an EC50 of 1.4 µg/mL.

Molecule B4 came in with an EC50 of 1.5 µg/mL.

As for B5, the EC50 was 0.8 µg/mL.

Molecule B6 had an EC50 of 0.5 µg/mL.

Molecule B7 came in with an EC50 of 1.2 µg/mL.

As for B8, the EC50 amounted to 5 µg/mL.

Regarding B9, it took 0.5 µg/mL to reach a half-maximal effect (EC50).

With B10, it took 3.3 µg/mL to reach a half-maximal effect (EC50).
